From the Immune Epitope Database (IEDB) come the findings set out here.

A value given as a limit tells only on which side of the number the result lay.

The target of one test is HLA-A*24:02. In words: IEDB peptide-MHC binding, purified MHC/competitive/radioactivity; filed as Kd, often an IC50 or EC50 that approximates it; ≥ and ≤ were set here for values at or beyond the usual limits of such assays.
Another test has as its target HLA-A*26:01. The description is as above.
The target of the next test is HLA-A*01:01. The test is described as above.
The next test deals with HLA-A*29:02. Described as above.
A further test concerns the target HLA-A*30:02. The description is as above.
Another test has as its target HLA-A*23:01. Described as above.
The target of the next test is HLA-B*15:01. In words: IEDB peptide-MHC binding, purified MHC/direct/fluorescence; filed as Kd, often an IC50 or EC50 that approximates it; ≥ and ≤ were set here for values at or beyond the usual limits of such assays. Particulars: source organism: Salmonella enterica subsp. enterica serovar Typhimurium.
Test [1] has as its target HLA-A*02:01. In words: IEDB peptide-MHC binding, purified MHC/competitive/fluorescence; ≥ and ≤ were set here for values at or beyond the usual limits of such assays.
For a further test, the target named is HLA-B*58:01. Put plainly: IEDB peptide-MHC binding, purified MHC/direct/fluorescence; filed as Kd, often an IC50 or EC50 that approximates it; ≥ and ≤ were set here for values at or beyond the usual limits of such assays. Particulars: source organism: Mycobacterium tuberculosis.
The target in a further test is HLA-A*03:01. The description is as above.
The target in test [2] is HLA-A*02:01. The description is as above. Particulars: source organism: Giardia intestinalis.
[3] abbreviates: source organism: Mammarenavirus whitewaterense.
[4] abbreviates: source organism: Triticum aestivum.
Setting [5] is: source organism: SARS coronavirus Tor2.
[6] abbreviates: source organism: Sudan ebolavirus.
Setting [7] is: source organism: Dengue virus 1 Brazil/97-11/1997.
Setting [8] is: source organism: Dengue virus 4 Philippines/H241/1956.
Setting [9] is: source organism: Mammarenavirus brazilense.
Setting [10] is: source organism: Dengue virus 2 Jamaica/1409/1983.
The mark [11] stands for this setting: source organism: Dengue virus 3 Martinique/1243/1999.
[12] abbreviates: source organism: Mammarenavirus guanaritoense.
Setting [13] is: source organism: Zaire ebolavirus.

Broadly, the Kd is the constant that tells how readily two partners part at equilibrium. Regarding HDHHFTPQI, the Kd is ≥ 77.5 µM in the test with HLA-A*24:02 (setting [3]); ≥ 77.9 µM in the test with HLA-A*26:01 (setting [3]); ≥ 78.1 µM in the test with HLA-A*01:01 (setting [3]); ≥ 78.9 µM with HLA-A*29:02 (setting [3]); ≥ 76.9 µM in the test with HLA-A*30:02 (setting [3]); ≥ 45.3 µM with HLA-A*23:01 (setting [3]).

On to QFEEIRNLAL, for which the Kd was 6.85 µM in the test with HLA-A*24:02 (setting [4]); ≥ 69.7 µM in the test with HLA-A*26:01 (setting [4]); ≥ 70.4 µM with HLA-A*01:01 (setting [4]); 3.88 µM in the test with HLA-A*29:02 (setting [4]); 7.39 µM in the test with HLA-A*30:02 (setting [4]); ≥ 21.7 µM in the test with HLA-A*23:01 (setting [4]).

Take YTGNYQCGHY: the Kd was ≥ 70.3 µM with HLA-A*24:02 (setting [5]); 0.128 µM with HLA-A*26:01 (setting [5]); 0.00338 µM with HLA-A*01:01 (setting [5]); 0.0225 µM with HLA-A*29:02 (setting [5]); 0.00115 µM with HLA-A*30:02 (setting [5]); ≥ 70 µM with HLA-A*23:01 (setting [5]).

For HSVGFDYVY, the Kd with HLA-A*24:02 (setting [5]) is ≥ 77.6 µM; with HLA-A*26:01 (setting [5]) it was 0.586 µM; with HLA-A*01:01 (setting [5]), 14.9 µM; in the test with HLA-A*29:02 (setting [5]), 0.157 µM; with HLA-A*30:02 (setting [5]) it was 0.0119 µM; with HLA-A*23:01 (setting [5]) it was ≥ 77.8 µM.

The sequence YQRPFGGQS gave a Kd in the test with HLA-B*15:01 of 3.71 µM.

A word on the IC50: it is the midpoint of a concentration-inhibition curve. For the sequence QFLFQLNDT, the IC50 with HLA-A*02:01 [1] (setting [6]) is 10.8 µM.

For LIGNENYLDY, the Kd with HLA-A*01:01 (setting [7]) stood at 6.08 µM.

RSTYRLDGW came in with a Kd with HLA-B*58:01 of 0.0453 µM.

With MSYTMCSGKF, the values for the Kd with HLA-A*26:01 (setting [8]), in the test with HLA-A*01:01 (setting [8]) and with HLA-A*30:02 (setting [8]) were 1.51 µM, 7.72 µM and 0.0818 µM, respectively.

Consider AYVNQAHHI, for which the figures for the Kd with HLA-A*24:02 (setting [9]), with HLA-A*29:02 (setting [9]) and in the test with HLA-A*23:01 (setting [9]) were 0.0662 µM, ≥ 73.3 µM and 0.0476 µM, respectively.

For TWMDLLRALI, the Kd in the test with HLA-A*24:02 (setting [8]) came out at 0.128 µM; with HLA-A*23:01 (setting [8]), 0.0217 µM.

Turning to ISQHNYRPGY, the Kd with HLA-A*01:01 (setting [7]) came to 11.1 µM; with HLA-A*30:02 (setting [7]), 0.0838 µM.

For the sequence VIDLEPISY, the Kd in the test with HLA-A*01:01 (setting [8]) was 0.0517 µM.

NSEQGGRAY: in the test with HLA-A*01:01 (source organism: Dengue virus 1 Singapore/S275/1990), the dissociation constant Kd came to 0.316 µM.

In turn, FMWAHPGKK had a Kd with HLA-A*03:01 (source organism: Corynebacterium jeikeium) of 0.039 µM.

Consider VFGSVYTTMF, for which the Kd with HLA-A*24:02 (setting [8]) was 1.17 µM; with HLA-A*23:01 (setting [8]), 0.0573 µM.

As for GVPLLAMGCY, the Kd in the test with HLA-A*30:02 (setting [8]) is 0.105 µM.

For VHTWTEQYKF, the Kd is 3.78 µM with HLA-A*24:02 (setting [10]) and 0.889 µM in the test with HLA-A*23:01 (setting [10]).

On to QKAALSEGVY, for which the dissociation constant (Kd) in the test with HLA-A*30:02 (source organism: Dengue virus 4 Singapore/8976/1995) turned out to be 0.139 µM.

Regarding LWMASVEPHW, the Kd turned out to be 0.231 µM with HLA-A*24:02 (setting [7]) and 0.13 µM with HLA-A*23:01 (setting [7]).

Regarding SWILRNPGF, the Kd with HLA-A*24:02 (setting [8]) was determined as 0.369 µM; in the test with HLA-A*23:01 (setting [8]) it was 0.496 µM.

Take NLTIAWPRM: the IC50 in the test with HLA-A*02:01 [1] (source organism: Human alphaherpesvirus 1 strain 17) is ≥ 50 µM.

On to PYLGKREDQW, for which the Kd with HLA-A*24:02 (setting [10]) stood at 2.98 µM; with HLA-A*23:01 (setting [10]), 1.39 µM.

As to ATLLAVSGVY, the figures for the Kd with HLA-A*26:01 (setting [7]), with HLA-A*01:01 (setting [7]) and in the test with HLA-A*30:02 (setting [7]) were 2.29 µM, 4.92 µM and 0.00247 µM, respectively.

As for SFYCDPKRYF, the Kd in the test with HLA-A*24:02 (setting [9]) came to 0.443 µM; with HLA-A*29:02 (setting [9]), 0.0294 µM; with HLA-A*23:01 (setting [9]) it was 0.0846 µM.

For KYTDRKWCF, the values for the Kd with HLA-A*24:02 (setting [11]) and in the test with HLA-A*23:01 (setting [11]) were 0.138 µM and 0.18 µM, respectively.

Consider LFWAVKPKI, for which the Kd in the test with HLA-A*24:02 (setting [9]) was 2.77 µM; in the test with HLA-A*29:02 (setting [9]), 9.35 µM; with HLA-A*23:01 (setting [9]), 2.12 µM.

Regarding VFTTNIWLK, the Kd with HLA-A*23:01 (setting [10]) was ≥ 30.9 µM.

In the test with HLA-A*02:01 [2], GLAGLQTDV displayed a Kd of 0.175 µM.

On to VLCSSSPTI, for which the figures for the Kd with HLA-A*24:02 (setting [12]), with HLA-A*29:02 (setting [12]) and with HLA-A*23:01 (setting [12]) were 1.67 µM, ≥ 30.7 µM and 0.457 µM, respectively.

In the test with HLA-A*02:01 [1] (source organism: Vaccinia virus), YNIDKIKDV registered an IC50 of 9.18 µM.

As for WIPYFGPAA, the IC50 with HLA-A*02:01 [1] (setting [13]) came to 0.894 µM.

Regarding ATGFGTNET, the IC50 with HLA-A*02:01 [1] (setting [13]) was ≥ 393 µM.

Take PRCRYVHKV: in the test with HLA-A*02:01 [1] (setting [13]), the IC50 was ≥ 3070 µM.

On to HLTTLATIS, for which, in the test with HLA-A*02:01 [1] (setting [13]), the IC50 worked out at 69.8 µM.

As for SLFNRGRLK, the Kd with HLA-A*03:01 (source organism: Mammarenavirus juninense) came to 0.0424 µM.

As for ISSTPFAEY, the Kd with HLA-A*01:01 (setting [8]) was found to be 1.89 µM; with HLA-A*30:02 (setting [8]) it was 0.319 µM.

In turn, SGLLIVKTV displayed an IC50 in the test with HLA-A*02:01 [1] (setting [13]) of 2.29 µM.

On to GVAGLITGG, for which, in the test with HLA-A*02:01 [1] (setting [13]), the IC50 was ≥ 77 µM.

In turn, IILFQKAFS displayed an IC50 in the test with HLA-A*02:01 [1] (setting [6]) of 67.7 µM.

For the sequence SKKEGGAMY, the Kd with HLA-A*30:02 (setting [10]) was ≥ 76.9 µM.
